# Positions count from the first letter of the chain named.
# B1: P3G7 (antibody, V domains shown)
# VH: EVQLVESGGGLVQPGRSLTLSCAVTGFIVRDYHIDWVRQAPGKGLEWVGRARNKASRYRVVYAASLKDRFTIIRDDSKNSIYLRMSSLKTEDAAMYFCVRVGHYDTQGYALDDYDVWGQGTAVTVSS
# VL: QSVLTQSPSVSAAPGQRVTIHCFGSSSTIGSNQLSWYQQVPGTAPKLLIYDSDKRPSGIPDRFSASKSGTSGTLDISGLQSGDEADYYCETWDDTLKAVVFGGGTKLTVL
# B2: P1D7 (antibody, V domains shown)
# VH: EVQLLESGGGLVQPGGSLRLSCAASGFTFTSYAMSWVRQAPGKGLEWVSALSNSGDSTYYADSVKGRFTISRDNSKNTLYLQMHSLRVEDTAVYYCAKDREGDYGDYVFDYWGQGTLVTVSS
# VL: SYVLTQPPSVSVAPGQTARIPCGGNNIGRKSVHWYQQKPGQAPVLVVYDDSDRPSGIPERFSGSNSGNTATLTISRVEAGDEADYYCQVWDSSDDLVVFGGGTTLTVL
# B3: P1D5 (antibody, V domains shown)
# VH: QVQLHESGPGLVEPSQTLTLTCTVSGGSTDSDGVYWTWIRQPAGKGLEWIGRIDNRGTYSYNPSLRSRITISEEPSQNQFSLRVRSLTAADAGVYYCAREVRRLQGRRYYYYGTDVWGPGTTVTVSS
# VL: DIVMTQSPLSLSVTLGESASISCRSSQSLLHTNAYNYLDWYLQRPGQSPQLLIYLSSVRASGVPDRFSGRGSGTDFTLKISRVEAEDVGIYFCMQALEMPFTFGPGTKVDIK
# B4: P3G2 (antibody, V domains shown)
# VH: QVQLQESGPGLVKPSETLSLTCSVSGGSVASGDFYWSWVRQPAGTGLEWIGRVSTSGSTNCNPSLKSRVTISIDTSKNEFSLRLPSVTAADTAVYYCARYRPGSGGLGVYYDYWGQGILVTVSS
# VL: QSALTQPPSASGSPGQSVTISCTGASSDIGGYNYVSWYQQHPGRAPRLMIYEVHNRPSGVPDRFSGSKSGNTASLTVSGLQAEDEADYYCMSYAGGNILLFGGGTKLTVL
# B5: P1B7 (antibody, V domains shown)
# VH: EVQLLESGGGLVQPGGSLRLSCAASGFTFKSYAMSWVRQAPGKGLEWVSAISGSGGSKYYADSVKGRFTISRDDSKNTLYLQMNSLRVEDTAVYYCAKPLLDSVYCLESWGQGTLVTVSS
# VL: DIQMTQSPSSLSASVGDRVTITCRASQDISNYLSWYQQRPGKAPKSLIYAAFRLQSGVPSKFSGSGSGTDFTLTISSLQPEDFATYYCQQYYTYPPTFGQGTKLEIK
# B6: P5D5 (antibody, V domains shown)
# VH: B5 VH with K30N, S31N, N77S, T78R, V93L, A97T, D102E, C106Y
# VL: B5 VL with D28G, Y32H, S34A, Y36F, R39K, F52S, K61R, T85S, T93S, T97A
# B7: P5G10 (human anti-PscF monoclonal antibody) (antibody, V domains shown)
# VH: VQLQQWGAGLLKPSETLSLTCAVYGGSFSDYYWTWIRQAPGKGLEWIGENRHRGTTNYNPSLKGRVTISVDTSKNQFTLKVTSVTAADTAVYFCARQRGSSGGAPSGLDVWGQGTTVTVSS
# VL: QSVLTQPPSASGTPGQRVTISCSGASSNIGTNYVFWYQQFPGTAPKLLIYRNGHRPSGVPDRFSGSKSGASASLAISGLRSDDEADYYCATWDDSLSSQVFGGGTKLTVL
# notes: also called P5G10 mAb
# Biological target: T1, PscF from strain PAO1 (Pseudomonas aeruginosa PAO1, UniProt P95434)
# T1 sequence (P95434 whole entry): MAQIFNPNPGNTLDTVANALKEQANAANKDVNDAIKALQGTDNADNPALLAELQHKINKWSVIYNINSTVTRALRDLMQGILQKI
# Experiment: not given
# Settings: not given
row,Binder,binding result
1,B1,binds
2,B2,binds
3,B3,binds
4,B4,binds
5,B5,binds
6,B6,binds

# Biological target: T1, PscF from strain PAO1
# Experiment: ELISA; competition ELISA; serial dilutions of competitor mAbs on antigen-coated wells for 30 min, then biotinylated mAbs at their EC70; detected with AP-conjugated streptavidin
# Settings: both partners purified
row,Binder,binding result
1,B7,binds

# Source: paper PMC12912723 (eLife, 2026)
